Data as given in patent publication US20110130444.

Experiments:
Assay in all cases: cell_activity
[1] = test system: Tol2 transposase; conditions: HEK293 transposition; 3.3 CHO, 5.4 HeLa, 4.1 H1299
[2] = test system: Sleeping Beauty SB11 transposase; conditions: HEK293 transposition; 2.9 CHO, 2.7 HeLa, 1.0 (inactive) H1299; excision PCR positive
[3] = test system: piggyBac transposase; conditions: HEK293 transposition; 9.8 CHO, 14.5 HeLa, 5.7 H1299; excision PCR positive

For Tol2 terminal repeat donor plasmid, the activity (fold over control) [1] was 93.9.

“Sleeping Beauty terminal repeat donor plasmid” showed an activity (fold over control) [2] of 8.1.

In the case of “TGATTATCTTTCTAGGG (double strand) [piggyBac terminal repeat donor (printed repeat end)]”, the activity (fold over control) [3] was 115.
